In patent US20140155581A1 (AstraZeneca / MedImmune, published 2014):

Target: T1, IGF1R (IGF1 receptor), antigen coated on the ELISA plate (UniProt P08069 31-932, limits assumed)
T1 construct: Construct not described; It may be the same histidine-tagged reagent as m8
Assay: ELISA, antigen coated at 2 µg/mL, antibody serially diluted, anti-kappa or anti-lambda HRP detection (FIG. 10)
Protocol: The absorbance at 450 nm was measured using a microtiter plate reader.

T1 sequence (P08069 31-932 limits assumed): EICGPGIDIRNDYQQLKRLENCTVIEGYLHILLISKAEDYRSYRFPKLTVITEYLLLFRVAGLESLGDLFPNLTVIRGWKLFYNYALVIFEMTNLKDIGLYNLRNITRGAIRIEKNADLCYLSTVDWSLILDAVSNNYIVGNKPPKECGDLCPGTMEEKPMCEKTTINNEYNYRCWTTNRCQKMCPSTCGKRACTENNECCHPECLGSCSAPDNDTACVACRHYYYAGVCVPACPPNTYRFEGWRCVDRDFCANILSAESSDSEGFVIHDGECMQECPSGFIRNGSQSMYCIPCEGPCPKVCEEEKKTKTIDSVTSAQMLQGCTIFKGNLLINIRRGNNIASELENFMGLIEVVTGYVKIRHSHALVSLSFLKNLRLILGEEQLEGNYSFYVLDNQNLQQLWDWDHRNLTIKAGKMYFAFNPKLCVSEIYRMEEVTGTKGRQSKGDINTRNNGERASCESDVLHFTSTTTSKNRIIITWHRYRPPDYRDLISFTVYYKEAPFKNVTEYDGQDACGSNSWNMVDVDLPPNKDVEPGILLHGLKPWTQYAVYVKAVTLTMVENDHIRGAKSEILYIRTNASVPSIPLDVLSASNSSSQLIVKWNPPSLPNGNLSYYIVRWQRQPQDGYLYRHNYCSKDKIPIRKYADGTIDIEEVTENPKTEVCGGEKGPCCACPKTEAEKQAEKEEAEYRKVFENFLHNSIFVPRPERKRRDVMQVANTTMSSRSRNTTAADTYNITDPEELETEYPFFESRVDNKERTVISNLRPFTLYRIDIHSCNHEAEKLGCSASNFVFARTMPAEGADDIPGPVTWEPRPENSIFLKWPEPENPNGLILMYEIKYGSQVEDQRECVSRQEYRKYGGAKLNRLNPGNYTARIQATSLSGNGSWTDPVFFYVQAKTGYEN

B1: anti-EGFR conventional antibody (monospecific bivalent, kappa light chain; parental arm of iMab-EI) (antibody, V domains shown)
VH: QVQLQESGPGLVKPSETLSLTCTVSGGSVSSGDYYWTWIRQSPGKGLEWIGHIYYSGNTNYNPSLKSRLTISIDTSKTQFSLKLSSVTAADTAIYYCVRDRVTGAFDIWGQGTMVTVSS
VL: DIQMTQSPSSLSASVGDRVTITCQASQDISNYLNWYQQKPGKAPKLLIYDASNLETGVPSRFSGSGSGTDFTFTISSLQPEDIATYFCQHFDHLPLAFGGGTKVEIK
notes: Conventional IgG with kappa light chain; constant regions not specified; also called anti-EGFR antibody; parental arm antibody
B1: no binding.
